± gives the half width of the 95% confidence interval.

Data on 26 sequences can be found in the supplement of paper PMC12764529.

A short description of series [1]: folding stability dG unfold from trypsin proteolysis; higher = more stable. The gist of the method:
(§1)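 K50 was inferred by Bayesian fitting of sequencing counts obtained after protease digestion of designed mini-proteins. Unfolding free energy was derived by comparison with a sequence-predicted unfolded-state K50 and a shared folded-state K50, for each protease or both combined. The mini-proteins were under 80 residues, had no cysteine, were carried in a PA-tagged cDNA display construct, and were kept only if AlphaFold2 dimer inter-PAE exceeded 15.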

Series [2] can be described thus: folding stability dG unfold from chymotrypsin proteolysis; higher = more stable. Put shortly:
as §1

Series [3] can be described thus: folding stability dG unfold (combined trypsin and chymotrypsin); higher = more stable. Put shortly:
as §1

“SAGGSAGGSAGGSAKSPNGDELPPGQPVEEHTIRPPVKPTITIKMYADPDAGKMKFELFSAGGSAGGSAGGS [r4_13_TrROS]”: the “folding stability dG unfold” value in series [1] turned out to be 0.941 ± 1 kJ/mol; in series [2], 1.87 ± 1.3 kJ/mol; in series [3], 2.23 ± 2.51 kJ/mol.

As to “SAGGSAGGSAGGSAPNVKLKVEVVTVKVENAKITLPDGRTITLKPGDTVTITKVTLEPASAGGSAGGSAGGS [r4_26_TrROS_Hall]”, the “folding stability dG unfold” value is 9.72 ± 0.368 kJ/mol in series [1], 8.59 ± 0.356 kJ/mol in series [2] and 8.56 ± 0.92 kJ/mol in series [3].

“SAGGSAGGSAGGSASMSVTLERLPNGTVVKITTKSVDPSTGSVDYKPSVEKIPPGVALDSAGGSAGGSAGGS [r4_72_JUSTAS]”: the entries for the “folding stability dG unfold” value in series [1], in series [2] and in series [3] were -1.83 ± 0.753 kJ/mol, -1.87 ± 0.418 kJ/mol and -2.15 ± 1.17 kJ/mol, respectively.

As for “SAGGSAGGSAGGSDPVKVTVTFTATVTVTLPDGGTAPVTLTVTVTAELPPGQSVEDFVASAGGSAGGSAGGS [r4_126_TrMRF]”, the entries for the “folding stability dG unfold” value in series [1], in series [2] and in series [3] were 10.9 ± 0.138 kJ/mol, 15.3 ± 0.23 kJ/mol and 13.8 ± 0.305 kJ/mol, respectively.

In the case of “SAGGSAGGSAGGSDRVEVELIFKFPNGFYVVIKWEIDPDEPGKIEMEIAIFDPDGKPIWSAGGSAGGSAGGS [r4_297_TrROS]”, the “folding stability dG unfold” value in series [1] amounted to 14 ± 0.837 kJ/mol; in series [2] it was 19.6 ± 0.502 kJ/mol; in series [3], 19.4 ± 0.795 kJ/mol.

Consider “SAGGSAGGSAGGSEEILDVKVDEKENTLVITTKLPSGGTTTKEIKVENVPPFPESNVKVSAGGSAGGSAGGS [r4_372_JUSTAS]”, for which the “folding stability dG unfold” value in series [1] was -2.24 ± 0.301 kJ/mol; in series [2], 1.3 ± 0.151 kJ/mol; in series [3], 0.19 ± 0.586 kJ/mol.

For the sequence “SAGGSAGGSAGGSEEKLKKMKPKKVATYKVKTVTYKKTKDGTWEPTKVEEVEITVYALPSAGGSAGGSAGGS [r4_288_TrROS_Hall]”, the “folding stability dG unfold” value in series [1] came out at 10.2 ± 0.293 kJ/mol; in series [2], 16.9 ± 0.301 kJ/mol; in series [3] it was 13.7 ± 1.26 kJ/mol.

“SAGGSAGGSAGGSEELLKKNPNYIIVKKVEKVLEAKTPSGKKYTIKTTIYIITKPNELPSAGGSAGGSAGGS [r10_0_JUSTAS]”: the “folding stability dG unfold” value came to 6.37 ± 0.414 kJ/mol in series [1], 8.91 ± 0.586 kJ/mol in series [2] and 7.71 ± 0.879 kJ/mol in series [3].

For “SAGGSAGGSAGGSEKEVEISVVLPDGYVLRVRVREVSEDGEEVEVEVELVKVKPGQKLLSAGGSAGGSAGGS [r4_72_TrROS_Hall]”, the “folding stability dG unfold” value in series [1] is 6.57 ± 0.213 kJ/mol; in series [2], 5.74 ± 0.331 kJ/mol; in series [3], 6.27 ± 0.628 kJ/mol.

For “SAGGSAGGSAGGSEKKITVYKDKNGNYLVVIEKGDKPIVIPFPKGASLKEALDIIDKLDSAGGSAGGSAGGS [r4_7_TrMRF]”, the “folding stability dG unfold” value in series [1] was 8.15 ± 0.397 kJ/mol; in series [2], 11 ± 0.213 kJ/mol; in series [3], 10.1 ± 0.586 kJ/mol.

For “SAGGSAGGSAGGSFGAVKARFKVEFVARAEDGSLYPVELEFEVEVPVLPPLPFLHPDLFSAGGSAGGSAGGS [r4_325_TrMRF]”, the results for the “folding stability dG unfold” value in series [1], in series [2] and in series [3] were 7.8 ± 0.213 kJ/mol, 9.84 ± 0.159 kJ/mol and 9.13 ± 0.285 kJ/mol, respectively.

With “SAGGSAGGSAGGSFTIASVETIRQPNGEILYRITLKFPDGTVEEVLEVPESEAGKVLSSLSAGGSAGGSAGG [r7_891_JUSTAS]”, the “folding stability dG unfold” value in series [1] worked out at 13.5 ± 0.502 kJ/mol; in series [2], 13.95 ± 0.105 kJ/mol; in series [3], 13.8 ± 0.293 kJ/mol.

On to “SAGGSAGGSAGGSGAEELAKKLQEKLEELGLEAEITVEYDEETNELTITITVDGKEYEFSAGGSAGGSAGGS [r4_312_TrROS_Hall]”, for which the entries for the “folding stability dG unfold” value in series [1], in series [2] and in series [3] were 9.36 ± 0.544 kJ/mol, 7.3 ± 0.264 kJ/mol and 8.12 ± 0.251 kJ/mol, respectively.

“SAGGSAGGSAGGSGAGTLITVTVGGKEVPVTVDPSSDRVSITLPEPTSLTLSVEDPARASAGGSAGGSAGGS [r10_1185_JUSTAS]”: the figures for the “folding stability dG unfold” value in series [1], in series [2] and in series [3] were 2.48 ± 0.418 kJ/mol, -2.52 ± 1.26 kJ/mol and 0.87 ± 0.711 kJ/mol, respectively.

For “SAGGSAGGSAGGSGGSARIEVERLPDGLVLLRIYDPETGEEIEIPMPPDLARSFVFLNGSAGGSAGGSAGGS [r4_494_TrMRF]”, the figures for the “folding stability dG unfold” value in series [1], in series [2] and in series [3] were 1.97 ± 0.109 kJ/mol, 6.33 ± 0.356 kJ/mol and 4.65 ± 0.188 kJ/mol, respectively.

As for “SAGGSAGGSAGGSGKLYYIVVELPNGEKISLLVESPEGAIELLEKLNYPVVKAEFFPISSAGGSAGGSAGGS [r4_213_TrMRF]”, the “folding stability dG unfold” value in series [1] was 9.56 ± 0.381 kJ/mol; in series [2], 12.9 ± 0.23 kJ/mol; in series [3] it was 11.9 ± 0.502 kJ/mol.

Turning to “SAGGSAGGSAGGSGMITVTIEREYTSYVTFPGGTLEPVLLKTTVTATLPPGVPVEEFLSSAGGSAGGSAGGS [r4_126_JUSTAS]”, the “folding stability dG unfold” value amounted to 6.89 ± 0.243 kJ/mol in series [1], 5.73 ± 0.502 kJ/mol in series [2] and 6.43 ± 0.46 kJ/mol in series [3].

Consider “SAGGSAGGSAGGSGMSVKREVLEVEEFPGPGRVVRVLERVTLPDGTELLREIEEVIDLLSAGGSAGGSAGGS [r4_50_JUSTAS]”, for which the “folding stability dG unfold” value in series [1] came to 0.915 ± 0.285 kJ/mol; in series [2] it was 4.7 ± 0.205 kJ/mol; in series [3] it was 3.64 ± 0.243 kJ/mol.

Turning to “SAGGSAGGSAGGSGMVEVVSPDLSPEELKERIRKELGDPSVKVEVTTLSDGTQLARVPASAGGSAGGSAGGS [r4_408_JUSTAS]”, the “folding stability dG unfold” value in series [1] is -7.27 ± 3.01 kJ/mol; in series [2], -0.36 ± 0.255 kJ/mol; in series [3], -1.53 ± 0.502 kJ/mol.

Consider “SAGGSAGGSAGGSGNYVPGPSLVTFYDPKTNKWTVVKSAPEEAVKLKASLPENVAKISLSAGGSAGGSAGGS [r4_282_JUSTAS]”, for which the “folding stability dG unfold” value was -0.994 ± 0.879 kJ/mol in series [1], -0.135 ± 1.13 kJ/mol in series [2] and -0.748 ± 1.34 kJ/mol in series [3].

For “SAGGSAGGSAGGSGQEIPFMLIIKDPDGELDYIIQIEMRRVPNGGVDIEITEIIPAKDISAGGSAGGSAGGS [r4_117_TrROS]”, the “folding stability dG unfold” value came out at 6.5 ± 0.418 kJ/mol in series [1], 7.37 ± 0.163 kJ/mol in series [2] and 7.4 ± 0.418 kJ/mol in series [3].

As to “SAGGSAGGSAGGSGYTVKITLKNPDGTESTITISGTGSKEEIINSIKKKYPNNVTKVIESAGGSAGGSAGGS [r4_412_JUSTAS]”, the entries for the “folding stability dG unfold” value in series [1], in series [2] and in series [3] were 5.74 ± 0.669 kJ/mol, 8.13 ± 0.289 kJ/mol and 6.4 ± 1.3 kJ/mol, respectively.

“SAGGSAGGSAGGSKAKKITIWIPPGNINPEVKDQLQKEGINIEIQPIPAKRDPDGKPRWSAGGSAGGSAGGS [r4_294_TrROS]”: the figures for the “folding stability dG unfold” value in series [1], in series [2] and in series [3] were -2.33 ± 1.42 kJ/mol, 5.01 ± 0.151 kJ/mol and 3.39 ± 0.586 kJ/mol, respectively.

As to “SAGGSAGGSAGGSKKIKIKVPPGARVRLKNGKWFSVEDIEKLKELGIKEIEIEKLPPKKSAGGSAGGSAGGS [r4_47_TrROS_Hall]”, the “folding stability dG unfold” value in series [1] stood at 2.8 ± 0.155 kJ/mol; in series [2], 4.72 ± 0.377 kJ/mol; in series [3] it was 4.18 ± 0.339 kJ/mol.

Regarding “SAGGSAGGSAGGSKKIVIRVKDKDGNEREIVLEVPEEELTEEEIAELAKKFPNAEIEVLSAGGSAGGSAGGS [r4_422_TrROS_Hall]”, the “folding stability dG unfold” value in series [1] amounted to 10.4 ± 0.544 kJ/mol; in series [2], 4.26 ± 0.222 kJ/mol; in series [3] it was 8.2 ± 0.544 kJ/mol.

“SAGGSAGGSAGGSKKIYLIKIEIEKKITYDKKTKELKIEEKIKIKIEPLSEEDLEKLLKSAGGSAGGSAGGS [r4_274_TrROS_Hall]”: the “folding stability dG unfold” value in series [1] came to 12.4 ± 1.05 kJ/mol; in series [2], 16 ± 0.753 kJ/mol; in series [3], 15.4 ± 1.92 kJ/mol.
